{"source": "paper PMC8427755", "key": {"[1]": {"molecular_target": "FcγRI on transfected Jurkat cells (human) (UniProt P12314)", "sequence (P12314 16-374)": "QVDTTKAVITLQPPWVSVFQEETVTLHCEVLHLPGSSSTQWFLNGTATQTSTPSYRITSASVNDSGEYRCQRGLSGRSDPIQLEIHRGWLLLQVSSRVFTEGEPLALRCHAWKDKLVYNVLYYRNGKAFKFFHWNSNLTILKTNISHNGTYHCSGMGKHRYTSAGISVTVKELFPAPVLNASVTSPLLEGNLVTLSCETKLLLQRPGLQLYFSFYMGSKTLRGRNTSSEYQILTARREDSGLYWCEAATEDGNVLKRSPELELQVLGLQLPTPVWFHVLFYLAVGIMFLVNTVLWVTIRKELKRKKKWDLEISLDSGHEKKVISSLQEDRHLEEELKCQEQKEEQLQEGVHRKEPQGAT"}, "[2]": {"molecular_target": "human FcRn expressed at the surface of Jurkat cells (human) (UniProt P55899)", "experiment": "flow cytometry on cells; competitive binding on FcRn-transfected Jurkat cells; Alexa-labelled rituximab (30 ug/mL) with the tested molecule, PBS pH 6.0; mean of 2 experiments"}, "[3]": {"molecular_target": "FcγRI on transfected Jurkat cells (human) (UniProt P12314)", "experiment": "flow cytometry on cells; competitive binding on cells transfected with FcγRIIa-H131, FcγRIIa-R131, FcγRIIb or FcγRI; Alexa-labelled rituximab (30 ug/mL) with the tested molecule, PBS pH 7.4; mean of 2 experiments"}, "[4]": {"molecular_target": "FcγRIIa-H131 on transfected cells (human) (UniProt P12318)", "sequence (P12318 34-317)": "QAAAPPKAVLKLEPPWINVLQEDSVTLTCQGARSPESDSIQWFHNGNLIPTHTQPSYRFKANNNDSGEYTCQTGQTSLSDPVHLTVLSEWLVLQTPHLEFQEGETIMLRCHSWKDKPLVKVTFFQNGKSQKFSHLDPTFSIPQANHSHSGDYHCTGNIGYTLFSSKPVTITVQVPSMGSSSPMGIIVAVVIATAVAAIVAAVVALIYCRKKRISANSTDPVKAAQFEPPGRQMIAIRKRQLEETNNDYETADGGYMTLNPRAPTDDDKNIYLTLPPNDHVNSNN", "experiment": "flow cytometry on cells; competitive binding on cells transfected with FcγRIIa-H131, FcγRIIa-R131, FcγRIIb or FcγRI; Alexa-labelled rituximab (30 ug/mL) with the tested molecule, PBS pH 7.4; mean of 2 experiments"}, "[5]": {"molecular_target": "FcγRIIa-R131 on transfected HEK cells (human)", "experiment": "flow cytometry on cells; competitive binding on cells transfected with FcγRIIa-H131, FcγRIIa-R131, FcγRIIb or FcγRI; Alexa-labelled rituximab (30 ug/mL) with the tested molecule, PBS pH 7.4; mean of 2 experiments"}, "[6]": {"molecular_target": "FcγRIIb on transfected HEK cells (human) (UniProt P31994)", "sequence (P31994 43-310)": "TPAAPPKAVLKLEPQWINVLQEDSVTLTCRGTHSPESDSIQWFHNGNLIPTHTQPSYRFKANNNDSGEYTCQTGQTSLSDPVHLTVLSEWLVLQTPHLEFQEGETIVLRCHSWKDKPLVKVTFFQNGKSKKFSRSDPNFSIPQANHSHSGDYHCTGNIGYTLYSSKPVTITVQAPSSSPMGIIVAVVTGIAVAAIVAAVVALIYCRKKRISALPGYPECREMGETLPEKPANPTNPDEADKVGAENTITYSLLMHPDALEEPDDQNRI", "experiment": "flow cytometry on cells; competitive binding on cells transfected with FcγRIIa-H131, FcγRIIa-R131, FcγRIIb or FcγRI; Alexa-labelled rituximab (30 ug/mL) with the tested molecule, PBS pH 7.4; mean of 2 experiments"}, "[7]": {"molecular_target": "FcγRIIIa-F158 on transfected Jurkat cells (human) (UniProt P08637)", "sequence (P08637 17-254)": "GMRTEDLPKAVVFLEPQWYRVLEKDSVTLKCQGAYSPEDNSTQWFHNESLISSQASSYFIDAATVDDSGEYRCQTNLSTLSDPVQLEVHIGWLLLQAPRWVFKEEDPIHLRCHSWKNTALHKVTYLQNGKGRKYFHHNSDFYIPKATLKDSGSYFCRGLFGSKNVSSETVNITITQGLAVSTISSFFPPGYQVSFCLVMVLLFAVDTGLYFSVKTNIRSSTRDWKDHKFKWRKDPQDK", "experiment": "flow cytometry on cells; competitive binding on FcγRIIIa-F158-transfected Jurkat cells; FITC-conjugated anti-FcγRIIIa 3G8 (0.5 ug/mL) with 17-2168 nM of the tested molecule, 20 min, 4°C, PBS pH 7.4; mean of 2 experiments"}, "[8]": {"molecular_target": "biotinylated human FcRn (Acrobiosystem) (human) (UniProt P55899)", "experiment": "SPR; Biacore T200, sensor chip CAP; biotinylated human or mouse FcRn captured; samples injected in single cycle kinetic mode, 25°C; 20 mM sodium phosphate, 150 mM NaCl, 0.05% Tween 20, pH 6.0; 1:1 Langmuir model, steady state model for IVIg on hFcRn"}, "[9]": {"molecular_target": "biotinylated mouse FcRn (Acrobiosystem) (mouse | not stated) (UniProt Q61559)", "sequence (Q61559 22-297, chain 1 of 2)": "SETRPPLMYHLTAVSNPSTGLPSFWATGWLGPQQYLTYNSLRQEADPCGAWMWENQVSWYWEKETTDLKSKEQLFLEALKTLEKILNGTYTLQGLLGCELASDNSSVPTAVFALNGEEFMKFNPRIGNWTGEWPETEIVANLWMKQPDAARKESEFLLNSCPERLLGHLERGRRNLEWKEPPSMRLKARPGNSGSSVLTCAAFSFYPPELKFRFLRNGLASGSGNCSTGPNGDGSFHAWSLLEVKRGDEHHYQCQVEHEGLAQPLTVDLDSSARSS", "sequence (P01887 21-119, chain 2 of 2, further chain)": "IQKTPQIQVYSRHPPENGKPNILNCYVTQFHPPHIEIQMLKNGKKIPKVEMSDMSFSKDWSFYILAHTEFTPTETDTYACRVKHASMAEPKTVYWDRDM", "experiment": "SPR; Biacore T200, sensor chip CAP; biotinylated human or mouse FcRn captured; samples injected in single cycle kinetic mode, 25°C; 20 mM sodium phosphate, 150 mM NaCl, 0.05% Tween 20, pH 6.0; 1:1 Langmuir model, steady state model for IVIg on hFcRn"}, "[10]": {"molecular_target": "His-tagged hFcγRIIIa (Sinobiological) (human) (UniProt P08637)", "experiment": "SPR; Biacore T200, CM5 chip with anti-His capture; His-tagged hFcγRIIIa or mFcγRIV captured; 15 mM Tris-HCl, 150 mM NaCl, 0.005% Tween 20, pH 7.4, 25°C; single cycle (hFcγRIIIa) or multi cycle (mFcγRIV) kinetics; 1:1 Langmuir model, two state reaction model for LFBD192 on hFcγRIIIa"}, "[11]": {"molecular_target": "His-tagged mFcγRIV (R&D Systems) (mouse)", "experiment": "SPR; Biacore T200, CM5 chip with anti-His capture; His-tagged hFcγRIIIa or mFcγRIV captured; 15 mM Tris-HCl, 150 mM NaCl, 0.005% Tween 20, pH 7.4, 25°C; single cycle (hFcγRIIIa) or multi cycle (mFcγRIV) kinetics; 1:1 Langmuir model, two state reaction model for LFBD192 on hFcγRIIIa"}, "[12]": {"molecular_target": "Recombinant human FcγRIIIa V/CD16aV (human)", "experiment": "BLI; Octet RED96; His-tagged hFcγRIIIa V fixed on anti-penta-His (HIS-1K) biosensors; Fc samples 1,000-15.625 nM in kinetic buffer, pH 7.4; 1/1 model; means of 3 experiments"}, "[13]": {"molecular_target": "recombinant human FcRn receptor (FcRn alpha-chain and beta2-microglobulin heterodimer), biotinylated (human) (UniProt P55899)", "experiment": "BLI; Octet RED96; biotinylated hFcRn fixed on streptavidin biosensors; Fc samples 200-3.125 nM; 0.1 M phosphate, 150 mM NaCl, 0.05% Tween 20, pH 6.0; 1/1 model; means of 3 experiments"}}}
{"substance": "intravenous immunoglobulin (IVIg)", "values": [{"measurement": "IC50 of inhibition of IL-2 secretion by FcγRI-transfected Jurkat cells co-cultured with Raji cells coated with rituximab", "setting": "[1]", "result": "> 1950", "unit": "nM"}, {"measurement": "inhibitory concentration at 25% of IL-2 secretion by FcγRI-transfected Jurkat cells co-cultured with Raji cells coated with rituximab", "setting": "[1]", "result": 1110, "unit": "nM"}, {"measurement": "IC50", "setting": "[2]", "result": 1360, "unit": "nM"}, {"measurement": "IC50", "setting": "[3]", "result": 880, "unit": "nM"}, {"measurement": "IC50", "setting": "[4]", "result": 671, "unit": "nM"}, {"measurement": "IC50", "setting": "[5]", "result": 1310, "unit": "nM"}, {"measurement": "IC50", "setting": "[6]", "result": 761, "unit": "nM"}, {"measurement": "IC50", "setting": "[7]", "result": 1680, "unit": "nM"}, {"measurement": "Kd", "setting": "[8]", "result": 469, "unit": "nM"}, {"measurement": "Kd", "setting": "[9]", "result": 17.1, "unit": "nM"}, {"measurement": "Kd", "setting": "[10]", "result": 40, "unit": "nM"}, {"measurement": "Kd", "setting": "[11]", "result": 554, "unit": "nM"}]}
{"substance": "rFc-WT (non-mutated Fc fragment of human IgG1) (domain or fragment)", "values": [{"measurement": "Kd", "setting": "[12]", "result": 504, "unit": "nM"}, {"measurement": "Kd", "setting": "[13]", "result": 36.5, "unit": "nM"}]}
